Source: patent US10239937
Blank lines part the entries; values can stand above or below the substance they belong to.

Columns and labels:
[1] = biological target: C3 fragments (iC3b, C3dg and C3d) of human complement component C3, deposited on cells or tissue (human) (UniProt P01024); assay: flow cytometry, rabbit RBCs + human serum + TT30 0.46 µM, 2 hr, panel A8-2-2 [Time: 2 hr]
[2] = biological target: C3 fragments (iC3b, C3dg and C3d) of human complement component C3, deposited on cells or tissue (human) (UniProt P01024); assay: flow cytometry, rabbit RBCs + human serum + TT30 0.46 µM, 4 hr, panel A8-4-3 [Time: 4 hr]
[3] = biological target: C3 fragments (iC3b, C3dg and C3d) of human complement component C3, deposited on cells or tissue (human) (UniProt P01024); assay: flow cytometry, rabbit RBCs + human serum + TT30 3.7 µM, time 0, panel A2-2-0; filing: no C3 fragments or TT30 on the cells at this concentration [Time: 0]
[4] = biological target: C3 fragments (iC3b, C3dg and C3d) of human complement component C3, deposited on cells or tissue (human) (UniProt P01024); assay: flow cytometry, rabbit RBCs + human serum + TT30 0.46 µM, 24 hr, panel A8-24-2 [Time: 24 hr]
[5] = biological target: C3 fragments (iC3b, C3dg and C3d) of human complement component C3, deposited on cells or tissue (human) (UniProt P01024); assay: flow cytometry, rabbit RBCs + human serum, no TT30, panel A12-3-0
[6] = biological target: C3 fragments (iC3b, C3dg and C3d) of human complement component C3, deposited on cells or tissue (human) (UniProt P01024); assay: flow cytometry, rabbit RBCs + human serum, no TT30, panel A12-2-0
[7] = biological target: C3 fragments (iC3b, C3dg and C3d) of human complement component C3, deposited on cells or tissue (human) (UniProt P01024); assay: flow cytometry, rabbit RBCs + human serum + TT30 1.4 µM, time 0, panel A5-2-0 [Time: 0]
[8] = biological target: C3 fragments (iC3b, C3dg and C3d) of human complement component C3, deposited on cells or tissue (human) (UniProt P01024); assay: flow cytometry, rabbit RBCs + human serum + TT30 0.46 µM, time 0, panel A8-3-0 [Time: 0]
[9] = biological target: C3 fragments (iC3b, C3dg and C3d) of human complement component C3, deposited on cells or tissue (human) (UniProt P01024); assay: flow cytometry, rabbit RBCs + human serum + TT30 0.46 µM, time 0, panel A8-2-0 [Time: 0]
[10] = biological target: C3 fragments (iC3b, C3dg and C3d) of human complement component C3, deposited on cells or tissue (human) (UniProt P01024); assay: flow cytometry, rabbit RBCs + human serum + TT30 0.46 µM, 2 hr, panel A8-2-3 [Time: 2 hr]
[11] = biological target: C3 fragments (iC3b, C3dg and C3d) of human complement component C3, deposited on cells or tissue (human) (UniProt P01024); assay: flow cytometry, rabbit RBCs + human serum + TT30 1.4 µM, time 0, panel A5-3-0 [Time: 0]
[12] = biological target: C3 fragments (iC3b, C3dg and C3d) of human complement component C3, deposited on cells or tissue (human) (UniProt P01024); assay: flow cytometry, rabbit RBCs + human serum + TT30 0.06 µM, time 0, panel A11-3-0 [Time: 0]
[13] = biological target: C3 fragments (iC3b, C3dg and C3d) of human complement component C3, deposited on cells or tissue (human) (UniProt P01024); assay: flow cytometry, rabbit RBCs + human serum + TT30 0.46 µM, 24 hr, panel A8-24-3 [Time: 24 hr]
[14] = biological target: C3 fragments (iC3b, C3dg and C3d) of human complement component C3, deposited on cells or tissue (human) (UniProt P01024); assay: flow cytometry, rabbit RBCs + human serum + TT30 0.06 µM, time 0, panel A11-2-0 [Time: 0]
[15] = biological target: C3 fragments (iC3b, C3dg and C3d) of human complement component C3, deposited on cells or tissue (human) (UniProt P01024); assay: flow cytometry, rabbit RBCs + human serum + TT30 0.46 µM, 4 hr, panel A8-4-2 [Time: 4 hr]
[16] = biological target: C3 fragments (iC3b, C3dg and C3d) of human complement component C3, deposited on cells or tissue (human) (UniProt P01024); assay: flow cytometry, rabbit RBCs + human serum + TT30 3.7 µM, time 0, panel A2-3-0; filing: no C3 fragments or TT30 on the cells at this concentration [Time: 0]
[17] = biological target: C3 fragments (iC3b, C3dg and C3d) of human complement component C3, deposited on cells or tissue (human) (UniProt P01024); assay: flow cytometry, rabbit RBCs + human serum + TT30 1.4 µM, time 0, panel A5-1-0; isotype control for anti-C3d [Time: 0]
[18] = biological target: TT30 (human); assay: flow cytometry, rabbit RBCs + human serum + TT30 1.4 µM, time 0, panel A5-2-0; isotype control for HB5 [Time: 0]
TT30 (human), sequence (chain, as listed by the source limits assumed): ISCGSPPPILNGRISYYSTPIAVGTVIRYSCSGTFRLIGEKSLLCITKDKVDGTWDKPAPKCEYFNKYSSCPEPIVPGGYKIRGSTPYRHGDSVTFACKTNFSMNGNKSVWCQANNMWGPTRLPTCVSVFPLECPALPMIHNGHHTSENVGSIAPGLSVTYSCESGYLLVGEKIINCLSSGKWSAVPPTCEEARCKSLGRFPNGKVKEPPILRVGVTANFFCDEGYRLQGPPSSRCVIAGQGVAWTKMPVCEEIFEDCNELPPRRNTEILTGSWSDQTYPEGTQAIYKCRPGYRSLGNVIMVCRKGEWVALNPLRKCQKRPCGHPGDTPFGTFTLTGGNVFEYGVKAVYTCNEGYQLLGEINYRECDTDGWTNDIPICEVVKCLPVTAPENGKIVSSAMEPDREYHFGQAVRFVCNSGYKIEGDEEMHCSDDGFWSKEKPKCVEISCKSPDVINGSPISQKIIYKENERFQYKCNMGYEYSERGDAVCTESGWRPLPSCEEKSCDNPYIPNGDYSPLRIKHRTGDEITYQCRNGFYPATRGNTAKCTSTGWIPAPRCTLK

[19] = biological target: TT30 (human); assay: flow cytometry, rabbit RBCs + human serum + TT30 0.46 µM, 24 hr, panel A8-24-2; isotype control for HB5 [Time: 24 hr]
[20] = biological target: TT30 (human); assay: flow cytometry, rabbit RBCs + human serum + TT30 0.46 µM, 4 hr, panel A8-4-2; isotype control for HB5 [Time: 4 hr]
[21] = biological target: TT30 (human); assay: flow cytometry, rabbit RBCs + human serum + TT30 0.46 µM, 2 hr, panel A8-2-2; isotype control for HB5 [Time: 2 hr]

UniProt P01024, sequence (P01024 1002-1303 limits assumed): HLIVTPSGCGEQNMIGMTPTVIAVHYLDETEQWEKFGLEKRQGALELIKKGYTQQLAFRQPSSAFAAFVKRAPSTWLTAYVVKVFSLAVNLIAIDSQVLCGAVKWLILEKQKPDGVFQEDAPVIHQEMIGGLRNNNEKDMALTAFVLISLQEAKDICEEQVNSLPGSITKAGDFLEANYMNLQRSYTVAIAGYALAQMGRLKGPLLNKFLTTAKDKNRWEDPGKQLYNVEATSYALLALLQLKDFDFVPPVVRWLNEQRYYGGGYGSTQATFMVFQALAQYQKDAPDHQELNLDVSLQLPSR

- % of gated cells in Q4-UL (C3d-APC+, IgG2a-FITC-) [1]: 89.8%
- % of gated cells in Q4-UR (C3d-APC+, IgG2a-FITC+) [1]: 0.3%
- % of gated cells in Q4-UL (C3d-APC+, HB5-FITC-) [2]: 38.2%
- % of gated cells in Q4-UR (C3d-APC+, HB5-FITC+) [2]: 54.7%
- % of gated cells in Q4-UL (C3d-APC+, IgG2a-FITC-) [3]: 2.4%
- % of gated cells in Q4-UR (C3d-APC+, IgG2a-FITC+) [3]: 0%
- % of gated cells in Q4-UL (C3d-APC+, IgG2a-FITC-) [4]: 97.9%
- % of gated cells in Q4-UR (C3d-APC+, IgG2a-FITC+) [4]: 0.3%
- % of gated cells in Q4-UL (C3d-APC+, HB5-FITC-) [5]: 94.9%
- % of gated cells in Q4-UR (C3d-APC+, HB5-FITC+) [5]: 2.6%
- % of gated cells in Q4-UL (C3d-APC+, IgG2a-FITC-) [6]: 100%
- % of gated cells in Q4-UR (C3d-APC+, IgG2a-FITC+) [6]: 0%
- % of gated cells in Q4-UL (C3d-APC+, IgG2a-FITC-) [7]: 84.9%
- % of gated cells in Q4-UR (C3d-APC+, IgG2a-FITC+) [7]: 0%
- % of gated cells in Q4-UL (C3d-APC+, HB5-FITC-) [8]: 11.5%
- % of gated cells in Q4-UR (C3d-APC+, HB5-FITC+) [8]: 69.8%
- % of gated cells in Q4-UL (C3d-APC+, IgG2a-FITC-) [9]: 84.8%
- % of gated cells in Q4-UR (C3d-APC+, IgG2a-FITC+) [9]: 0%
- % of gated cells in Q4-UL (C3d-APC+, HB5-FITC-) [10]: 25.3%
- % of gated cells in Q4-UR (C3d-APC+, HB5-FITC+) [10]: 67.5%
- % of gated cells in Q4-UL (C3d-APC+, HB5-FITC-) [11]: 81%
- % of gated cells in Q4-UR (C3d-APC+, HB5-FITC+) [11]: 4%
- % of gated cells in Q4-UL (C3d-APC+, HB5-FITC-) [12]: 78.9%
- % of gated cells in Q4-UR (C3d-APC+, HB5-FITC+) [12]: 5.3%
- % of gated cells in Q4-UL (C3d-APC+, HB5-FITC-) [13]: 51.7%
- % of gated cells in Q4-UR (C3d-APC+, HB5-FITC+) [13]: 44.4%
- % of gated cells in Q4-UL (C3d-APC+, IgG2a-FITC-) [14]: 90.3%
- % of gated cells in Q4-UR (C3d-APC+, IgG2a-FITC+) [14]: 0%
- % of gated cells in Q4-UL (C3d-APC+, IgG2a-FITC-) [15]: 93.4%
- % of gated cells in Q4-UR (C3d-APC+, IgG2a-FITC+) [15]: 0%
- % of gated cells in Q4-UL (C3d-APC+, HB5-FITC-) [16]: 0%
- % of gated cells in Q4-UR (C3d-APC+, HB5-FITC+) [16]: 0%
Substance: C3d (A702)-APC (antibody)

- % of gated cells in Q4-UR (IgG1-APC+, HB5-FITC+) [17]: 0.4%
Substance: IgG1-APC (antibody)

- % of gated cells in Q4-LR (C3d-APC-, IgG2a-FITC+) [18]: 0.5%
- % of gated cells in Q4-LR (C3d-APC-, IgG2a-FITC+) [19]: 0.3%
- % of gated cells in Q4-UR (C3d-APC+, IgG2a-FITC+) [19]: 0.3%
- % of gated cells in Q4-LR (C3d-APC-, IgG2a-FITC+) [20]: 0.3%
- % of gated cells in Q4-LR (C3d-APC-, IgG2a-FITC+) [21]: 0.3%
- % of gated cells in Q4-UR (C3d-APC+, IgG2a-FITC+) [21]: 0.3%
Substance: IgG2a-FITC (antibody)
